# What was measured:
# [1] = biological target: hNHE1cdt F2-AA (human) (UniProt P19634)
# [2] = biological target: hNHE1cdt F1-A (human) (UniProt P19634)
# [3] = biological target: hNHE1cdt D1D2-(AXA)2 (human) (UniProt P19634)
# [4] = biological target: hNHE1cdt D3-AXA (human) (UniProt P19634)
# [5] = biological target: human NHE1 C-terminal distal tail, M + I680-Q815 (hNHE1cdt WT) (human) (UniProt P19634)
substance,measurement,setting,value
active ERK2 (aERK2) (from UniProt P28482 1-360) (enzyme),"k app of phosphorylation of S693 of hNHE1cdt by aERK2 (time-resolved NMR, 25 °C)",[1],0.444 h⁻¹
same,"k app of phosphorylation of S723/S726 of hNHE1cdt by aERK2 (decrease of the S723 peak; time-resolved NMR, 25 °C)",[1],0.127 h⁻¹
same,"k app of phosphorylation of S771 of hNHE1cdt by aERK2 (time-resolved NMR, 25 °C)",[1],0.0088 h⁻¹
same,"k app of phosphorylation of S785 of hNHE1cdt by aERK2 (time-resolved NMR, 25 °C)",[1],0.012 h⁻¹
same,"k app of phosphorylation of T779 of hNHE1cdt by aERK2 (time-resolved NMR, 25 °C)",[1],0.144 h⁻¹
same,"k app of phosphorylation of S693 of hNHE1cdt by aERK2 (time-resolved NMR, 25 °C)",[2],0.3 h⁻¹
same,"k app of phosphorylation of S723/S726 of hNHE1cdt by aERK2 (decrease of the S723 peak; time-resolved NMR, 25 °C)",[2],0.0741 h⁻¹
same,"k app of phosphorylation of S771 of hNHE1cdt by aERK2 (time-resolved NMR, 25 °C)",[2],0.0047 h⁻¹
same,"k app of phosphorylation of S785 of hNHE1cdt by aERK2 (time-resolved NMR, 25 °C)",[2],0.0088 h⁻¹
same,"k app of phosphorylation of T779 of hNHE1cdt by aERK2 (time-resolved NMR, 25 °C)",[2],0.147 h⁻¹
same,"k app of phosphorylation of S693 of hNHE1cdt by aERK2 (time-resolved NMR, 25 °C)",[3],0.319 h⁻¹
same,"k app of phosphorylation of S723/S726 of hNHE1cdt by aERK2 (decrease of the S723 peak; time-resolved NMR, 25 °C)",[3],0.061 h⁻¹
same,"k app of phosphorylation of S771 of hNHE1cdt by aERK2 (time-resolved NMR, 25 °C)",[3],0.0066 h⁻¹
same,"k app of phosphorylation of S785 of hNHE1cdt by aERK2 (time-resolved NMR, 25 °C)",[3],0.0302 h⁻¹
same,"k app of phosphorylation of T779 of hNHE1cdt by aERK2 (time-resolved NMR, 25 °C)",[3],0.157 h⁻¹
same,"k app of phosphorylation of S693 of hNHE1cdt by aERK2 (time-resolved NMR, 25 °C)",[4],0.349 h⁻¹
same,"k app of phosphorylation of S723/S726 of hNHE1cdt by aERK2 (decrease of the S723 peak; time-resolved NMR, 25 °C)",[4],0.0592 h⁻¹
same,"k app of phosphorylation of S771 of hNHE1cdt by aERK2 (time-resolved NMR, 25 °C)",[4],0.007 h⁻¹
same,"k app of phosphorylation of S785 of hNHE1cdt by aERK2 (time-resolved NMR, 25 °C)",[4],0.0325 h⁻¹
same,"k app of phosphorylation of T779 of hNHE1cdt by aERK2 (time-resolved NMR, 25 °C)",[4],0.141 h⁻¹
same,"k app of phosphorylation of S693 of hNHE1cdt by aERK2 (time-resolved NMR, 25 °C)",[5],0.349 h⁻¹
same,"k app of phosphorylation of S723/S726 of hNHE1cdt by aERK2 (decrease of the S723 peak; time-resolved NMR, 25 °C)",[5],0.0821 h⁻¹
same,"k app of phosphorylation of S771 of hNHE1cdt by aERK2 (time-resolved NMR, 25 °C)",[5],0.0088 h⁻¹
same,"k app of phosphorylation of S785 of hNHE1cdt by aERK2 (time-resolved NMR, 25 °C)",[5],0.0305 h⁻¹
same,"k app of phosphorylation of T779 of hNHE1cdt by aERK2 (time-resolved NMR, 25 °C)",[5],0.165 h⁻¹

# Source: article PMC4833948
